Assay results published in patent US20130326645.

Key:
Test in all cases: cell_activity
ZFN 29730 (synthetic) = conditions: pair 29732/29730, donor pDAS000152 10:1, A-genome (B 6306, D 7911), wheat SEC protoplasts
ZFN 25712 (synthetic) = conditions: pair 25712/25713, maize
ZFN 25686 (synthetic) = conditions: pair 25686/25687, maize
ZFN 25717 (synthetic) = conditions: pair 25716/25717, maize; text states 380 times control
ZFN 25687 (synthetic) = conditions: pair 25686/25687, maize
ZFN 25713 (synthetic) = conditions: pair 25712/25713, maize
ZFN 29732 (synthetic) = conditions: pair 29732/29730, donor pDAS000152 10:1, A-genome (B 6306, D 7911), wheat SEC protoplasts
ZFN 25688 (synthetic) = conditions: pair 25688/25689, maize
ZFN 25716 (synthetic) = conditions: pair 25716/25717, maize; text states 380 times control
ZFN 25689 (synthetic) = conditions: pair 25688/25689, maize

AGGCAGCACGTGCTCCTGATGCGGGACT (double strand) [29730 site]
activity (ppm NHEJ editing) (ZFN 29730 (synthetic)): 6720

ATCGGGCATCGGCGACTGATGAGCCTTG (double strand) [25712 site]
activity (% of IPPK2 ZFN activity) (ZFN 25712 (synthetic)): 69

CACAACAAGACTGCGGGTTCGGTGGCGC (double strand) [25686 site]
activity (% of IPPK2 ZFN activity) (ZFN 25686 (synthetic)): 32

CGGAAGCGGATGGCCCGCTTCTTTAGAA (double strand) [25717 site]
activity (% of IPPK2 ZFN activity as printed) (ZFN 25717 (synthetic)): 380

GATAGGTGGCAGTGGCAGTGGCACTGGC (double strand) [25687 site]
activity (% of IPPK2 ZFN activity) (ZFN 25687 (synthetic)): 32

GATCAACGGAAGCGGATGGCCCGCTTCT (double strand) [25713 site]
activity (% of IPPK2 ZFN activity) (ZFN 25713 (synthetic)): 69

GATCCCAAGCGGTGGTGCTTTCAAGGAC (double strand) [29732 site]
activity (ppm NHEJ editing) (ZFN 29732 (synthetic)): 6720

TATCGGCACAACAAGACTGCGGGTTCGG (double strand) [25688 site]
activity (% of IPPK2 ZFN activity) (ZFN 25688 (synthetic)): 108

TGATCGCATCGGGCATCGGCGACTGATG (double strand) [25716 site]
activity (% of IPPK2 ZFN activity as printed) (ZFN 25716 (synthetic)): 380

TGGCAGTGGCAGTGGCACTGGCACGGCA (double strand) [25689 site]
activity (% of IPPK2 ZFN activity) (ZFN 25689 (synthetic)): 108
